Laboratory results: the supplement of paper PMC10724198
± gives the standard deviation of the averaged measurements.

What was measured:
[1] = tested on: Saccharomyces cerevisiae; assay: protein stability index of tFT-peptide fusion (C-terminal peptide) (PSI (0-1 scale)); higher = more stable (slower turnover); settings: genetic background: wild type; temperature: 30 C
[2] = tested on: Saccharomyces cerevisiae; assay: as above
Method: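 MPS profiling in S. cerevisiae of the tFT-X12 degron library: putative degron peptides plus stable controls, 12 aa, fused to the C-terminus of a sfGFP-mCherry timer. Cells are FACS-sorted into 8 mCherry/sfGFP bins and deep-sequenced. PSI runs from 0 (unstable) to 1 (stable). Backgrounds are wild type, das1Δ and doa10Δ at 30 °C, and wild type, das1Δ, cdc34-1 and cdc53-1 at 37 °C; 2-3 technical replicates each.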

[3] = genetic background: cdc34-1, temperature: 37 C
[4] = genetic background: cdc53-1, temperature: 37 C
[5] = genetic background: das1 deletion, temperature: 30 C
[6] = genetic background: das1 deletion, temperature: 37 C
[7] = genetic background: doa10 deletion, temperature: 30 C
[8] = genetic background: wild type, temperature: 30 C
[9] = genetic background: wild type, temperature: 37 C
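Further: PSI is a weighted mean of sequencing reads over stability bins, variants kept only with over 10 reads, mCherry proximal and sfGFP distal, peptide attached via GGGS linker.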

Sequence: LYLFKVLFFRVF
- protein stability index [1]: 0.104 ± 0.048
- protein stability index [2, 3]: 0.122 ± 0.047
- protein stability index [2, 4]: 0.173 ± 0.026
- protein stability index [2, 5]: 0.286 ± 0.045
- protein stability index [2, 6]: 0.458 ± 0.06
- protein stability index [2, 7]: 0.0857 ± 0.0067
- protein stability index [2, 8]: 0.0584 ± 0.016
- protein stability index [2, 9]: 0.102 ± 0.015

Sequence: LYYSVIFLFLSW
- protein stability index [1]: 0.339 ± 0.047
- protein stability index [2, 3]: 0.255 ± 0.0028
- protein stability index [2, 4]: 0.306 ± 0.023
- protein stability index [2, 5]: 0.232 ± 0.033
- protein stability index [2, 6]: 0.371 ± 0.016
- protein stability index [2, 7]: 0.272 ± 0.036
- protein stability index [2, 8]: 0.208 ± 0.026
- protein stability index [2, 9]: 0.334 ± 0.033

Sequence: MACLRLTVYVMG
- protein stability index [1]: 0.283 ± 0.017
- protein stability index [2, 3]: 0.0763 ± 0.013
- protein stability index [2, 4]: 0.0769 ± 0.045
- protein stability index [2, 5]: 0.135 ± 0.031
- protein stability index [2, 6]: 0.2187 ± 0.0016
- protein stability index [2, 7]: 0.088 ± 0.034
- protein stability index [2, 8]: 0.13 ± 0.026
- protein stability index [2, 9]: 0.202 ± 0.0036

Sequence: MALAVRVVACGA
- protein stability index [1]: 0.261 ± 0.0094
- protein stability index [2, 3]: 0.125 ± 0.032
- protein stability index [2, 4]: 0.1647 ± 0.0014
- protein stability index [2, 5]: 0.196 ± 0.026
- protein stability index [2, 6]: 0.281 ± 0.0065
- protein stability index [2, 7]: 0.157 ± 0.012
- protein stability index [2, 8]: 0.19 ± 0.024
- protein stability index [2, 9]: 0.236 ± 0.0084

Sequence: MFLHLGLFIMSH
- protein stability index [1]: 0.382 ± 0.037
- protein stability index [2, 3]: 0.348 ± 0.011
- protein stability index [2, 4]: 0.4065 ± 0.0032
- protein stability index [2, 5]: 0.303 ± 0.025
- protein stability index [2, 6]: 0.457 ± 0.0099
- protein stability index [2, 7]: 0.2787 ± 0.0023
- protein stability index [2, 8]: 0.306 ± 0.014
- protein stability index [2, 9]: 0.435 ± 0.006

Sequence: MFWKFVFRGFWF
- protein stability index [1]: 0.338 ± 0.018
- protein stability index [2, 3]: 0.694 ± 0.064
- protein stability index [2, 4]: 0.739 ± 0.008
- protein stability index [2, 5]: 0.641 ± 0.034
- protein stability index [2, 6]: 0.7791 ± 0.0044
- protein stability index [2, 7]: 0.221 ± 0.0052
- protein stability index [2, 8]: 0.259 ± 0.019
- protein stability index [2, 9]: 0.4748 ± 0.0044

Sequence: MMEMMTKSNRIP
- protein stability index [1]: 0.517 ± 0.025
- protein stability index [2, 3]: 0.683 ± 0.029
- protein stability index [2, 4]: 0.737 ± 0.015
- protein stability index [2, 5]: 0.63 ± 0.016
- protein stability index [2, 6]: 0.709 ± 0.04
- protein stability index [2, 7]: 0.4 ± 0.02
- protein stability index [2, 8]: 0.446 ± 0.074
- protein stability index [2, 9]: 0.639 ± 0.016

Sequence: MQFVALFLVGLL
- protein stability index [1]: 0.465 ± 0.0047
- protein stability index [2, 3]: 0.465 ± 0.041
- protein stability index [2, 4]: 0.5087 ± 0.001
- protein stability index [2, 5]: 0.346 ± 0.049
- protein stability index [2, 6]: 0.5245 ± 0.0022
- protein stability index [2, 7]: 0.308 ± 0.0095
- protein stability index [2, 8]: 0.354 ± 0.023
- protein stability index [2, 9]: 0.509 ± 0.0056

Sequence: MRGPAWVCVLYS
- protein stability index [1]: 0.485 ± 0.028
- protein stability index [2, 3]: 0.637 ± 0.026
- protein stability index [2, 4]: 0.711 ± 0.012
- protein stability index [2, 5]: 0.59 ± 0.044
- protein stability index [2, 6]: 0.69291 ± 0.00012
- protein stability index [2, 7]: 0.284 ± 0.0086
- protein stability index [2, 8]: 0.339 ± 0.023
- protein stability index [2, 9]: 0.5348 ± 0.0048

Sequence: MSVLAFVCCLSG
- protein stability index [1]: 0.336 ± 0.0033
- protein stability index [2, 3]: 0.3532 ± 0.0026
- protein stability index [2, 4]: 0.311 ± 0.0052
- protein stability index [2, 5]: 0.289 ± 0.033
- protein stability index [2, 6]: 0.393 ± 0.022
- protein stability index [2, 7]: 0.2478 ± 0.0014
- protein stability index [2, 8]: 0.268 ± 0.027
- protein stability index [2, 9]: 0.3585 ± 0.0029

Sequence: NDVGGYFYVCSE
- protein stability index [1]: 0.578 ± 0.12
- protein stability index [2, 3]: 0.682 ± 0.013
- protein stability index [2, 4]: 0.749 ± 0.013
- protein stability index [2, 5]: 0.641 ± 0.012
- protein stability index [2, 6]: 0.7142 ± 0.0056
- protein stability index [2, 7]: 0.63 ± 0.011
- protein stability index [2, 8]: 0.648 ± 0.024
- protein stability index [2, 9]: 0.735 ± 0.023

Sequence: NHKTIRIQNKSI
- protein stability index [1]: 0.302 ± 0.031
- protein stability index [2, 3]: 0.67783 ± 7.8e-06
- protein stability index [2, 4]: 0.775 ± 0.045
- protein stability index [2, 5]: 0.64 ± 0.034
- protein stability index [2, 6]: 0.699 ± 0.0092
- protein stability index [2, 7]: 0.146 ± 0.0041
- protein stability index [2, 8]: 0.143 ± 0.051
- protein stability index [2, 9]: 0.424 ± 0.044

Sequence: NKYSMQNVLKSF
- protein stability index [1]: 0.418 ± 0.023
- protein stability index [2, 3]: 0.7 ± 0.034
- protein stability index [2, 4]: 0.711 ± 0.02
- protein stability index [2, 5]: 0.632 ± 0.025
- protein stability index [2, 6]: 0.752 ± 0.017
- protein stability index [2, 7]: 0.249 ± 0.06
- protein stability index [2, 8]: 0.323 ± 0.025
- protein stability index [2, 9]: 0.552 ± 0.049

Sequence: NLDRYYKKIKLI
- protein stability index [1]: 0.15 ± 0.025
- protein stability index [2, 3]: 0.338 ± 0.025
- protein stability index [2, 4]: 0.69 ± 0.013
- protein stability index [2, 5]: 0.689 ± 0.063
- protein stability index [2, 6]: 0.733 ± 0.019
- protein stability index [2, 7]: 0.052 ± 0.03
- protein stability index [2, 8]: 0.0742 ± 0.029
- protein stability index [2, 9]: 0.0913 ± 0.021

Sequence: NLSYFFFSVLFF
- protein stability index [1]: 0.499 ± 0.032
- protein stability index [2, 3]: 0.552 ± 0.069
- protein stability index [2, 4]: 0.562 ± 0.018
- protein stability index [2, 5]: 0.506 ± 0.033
- protein stability index [2, 6]: 0.693 ± 0.067
- protein stability index [2, 7]: 0.62 ± 0.022
- protein stability index [2, 8]: 0.545 ± 0.068
- protein stability index [2, 9]: 0.612 ± 0.038

Sequence: NSCHFYSRFYLA
- protein stability index [1]: 0.3452 ± 0.0025
- protein stability index [2, 3]: 0.651 ± 0.012
- protein stability index [2, 4]: 0.7421 ± 0.00091
- protein stability index [2, 5]: 0.657 ± 0.022
- protein stability index [2, 6]: 0.70341 ± 0.00042
- protein stability index [2, 7]: 0.243 ± 0.0054
- protein stability index [2, 8]: 0.3 ± 0.019
- protein stability index [2, 9]: 0.5196 ± 0.00096

Sequence: NVALHPGVPRKC
- protein stability index [1]: 0.341 ± 0.036
- protein stability index [2, 3]: 0.656 ± 0.038
- protein stability index [2, 4]: 0.715 ± 0.018
- protein stability index [2, 5]: 0.677 ± 0.026
- protein stability index [2, 6]: 0.75 ± 0.031
- protein stability index [2, 7]: 0.664 ± 0.018
- protein stability index [2, 8]: 0.649 ± 0.019
- protein stability index [2, 9]: 0.702 ± 0.019

Sequence: NYCLYFKLSRLS
- protein stability index [1]: 0.3897 ± 0.00059
- protein stability index [2, 3]: 0.62 ± 0.029
- protein stability index [2, 4]: 0.691 ± 0.016
- protein stability index [2, 5]: 0.603 ± 0.015
- protein stability index [2, 6]: 0.655 ± 0.021
- protein stability index [2, 7]: 0.221 ± 0.02
- protein stability index [2, 8]: 0.25 ± 0.017
- protein stability index [2, 9]: 0.429 ± 0.011

Sequence: NYVFALFYMVVA
- protein stability index [1]: 0.254 ± 0.0054
- protein stability index [2, 3]: 0.196 ± 0.022
- protein stability index [2, 4]: 0.311 ± 0.031
- protein stability index [2, 5]: 0.224 ± 0.033
- protein stability index [2, 6]: 0.3449 ± 0.0014
- protein stability index [2, 7]: 0.19 ± 0.0089
- protein stability index [2, 8]: 0.217 ± 0.025
- protein stability index [2, 9]: 0.345 ± 0.03
